# Article PMC3638900
# Target: HB36.4 I58E displayed on the yeast surface
# Assay: flow cytometry on cells
substance,measurement,value
"A/Vietnam/1203/2004 (H5N1) hemagglutinin, biotinylated (natural protein)",net change in specificity (H1 over H5) against HB36.4,> 30 fold
